According to the MegaScale stability set (Tsuboyama et al. 2023):

B1: 6YSE (parent)
chain: HERALMVNRLQKLTRMLRVHPDPKWKQEQQELIKRLK
B2: 2K2A (parent)
chain: ELREAFRLYDKEGNGYISTDVMREILAELDETLSSEDLDAMIDEIDADGSGTVDFEEFMGVMT

Variants of: B1
Experiment: folding stability dG (cDNA display proteolysis); higher = more stable
Settings: PBS, room temperature

Compared with HMRALMVNRLQKLTRMLRVHPDPKWKQEQQELIKRLK, HFRALMVNRLQKLTRMLRVHPDPKWKQEQQELIKRLK is lower in “folding stability dG” value: 1.46 kcal/mol for the first, 1.27 kcal/mol for the second.

Compared with HARALMVNRLQKLTRMLRVHPDPKWKQEQQELIKRLK, HSRALMVNRLQKLTRMLRVHPDPKWKQEQQELIKRLK is lower in “folding stability dG” value: 1.14 kcal/mol for the first, 1.09 kcal/mol for the second.

First: HDRALMVNRLQKLTRMLRVHPDPKWKQEQQELIKRLK
Second: HGRALMVNRLQKLTRMLRVHPDPKWKQEQQELIKRLK
The “folding stability dG” value of the first is higher: 1.16 kcal/mol for the first, 0.782 kcal/mol for the second.

Going from HIRALMVNRLQKLTRMLRVHPDPKWKQEQQELIKRLK to HKRALMVNRLQKLTRMLRVHPDPKWKQEQQELIKRLK, the “folding stability dG” value falls from 1.4 kcal/mol to 1.15 kcal/mol.

Going from HYRALMVNRLQKLTRMLRVHPDPKWKQEQQELIKRLK to HPRALMVNRLQKLTRMLRVHPDPKWKQEQQELIKRLK, the “folding stability dG” value falls from 1.32 kcal/mol to 0.758 kcal/mol.

Going from HLRALMVNRLQKLTRMLRVHPDPKWKQEQQELIKRLK to HHRALMVNRLQKLTRMLRVHPDPKWKQEQQELIKRLK, the “folding stability dG” value falls from 1.59 kcal/mol to 1.05 kcal/mol.

Compared with HRRALMVNRLQKLTRMLRVHPDPKWKQEQQELIKRLK, HVRALMVNRLQKLTRMLRVHPDPKWKQEQQELIKRLK is higher in “folding stability dG” value: 0.9 kcal/mol for the first, 1.23 kcal/mol for the second.

Compared with HQRALMVNRLQKLTRMLRVHPDPKWKQEQQELIKRLK, HNRALMVNRLQKLTRMLRVHPDPKWKQEQQELIKRLK is lower in “folding stability dG” value: 1.25 kcal/mol for the first, 1.22 kcal/mol for the second.

Compared with HWRALMVNRLQKLTRMLRVHPDPKWKQEQQELIKRLK, HELALMVNRLQKLTRMLRVHPDPKWKQEQQELIKRLK is lower in “folding stability dG” value: 1.65 kcal/mol for the first, 1.61 kcal/mol for the second.

First: HEIALMVNRLQKLTRMLRVHPDPKWKQEQQELIKRLK
Second: HEDALMVNRLQKLTRMLRVHPDPKWKQEQQELIKRLK
The “folding stability dG” value of the first is higher: 1.63 kcal/mol for the first, 0.418 kcal/mol for the second.

Compared with HEFALMVNRLQKLTRMLRVHPDPKWKQEQQELIKRLK, HEHALMVNRLQKLTRMLRVHPDPKWKQEQQELIKRLK is lower in “folding stability dG” value: 1.66 kcal/mol for the first, 1.18 kcal/mol for the second.

Compared with HEGALMVNRLQKLTRMLRVHPDPKWKQEQQELIKRLK, HEMALMVNRLQKLTRMLRVHPDPKWKQEQQELIKRLK is higher in “folding stability dG” value: 0.193 kcal/mol for the first, 0.994 kcal/mol for the second.

Compared with HEAALMVNRLQKLTRMLRVHPDPKWKQEQQELIKRLK, HEKALMVNRLQKLTRMLRVHPDPKWKQEQQELIKRLK is higher in “folding stability dG” value: 0.434 kcal/mol for the first, 1.03 kcal/mol for the second.

Compared with HEEALMVNRLQKLTRMLRVHPDPKWKQEQQELIKRLK, GERALMVNRLQKLTRMLRVHPDPKWKQEQQELIKRLK is higher in “folding stability dG” value: 0.651 kcal/mol for the first, 1.05 kcal/mol for the second.

Going from IERALMVNRLQKLTRMLRVHPDPKWKQEQQELIKRLK to FERALMVNRLQKLTRMLRVHPDPKWKQEQQELIKRLK, the “folding stability dG” value rises from 1.34 kcal/mol to 1.59 kcal/mol.

First: DERALMVNRLQKLTRMLRVHPDPKWKQEQQELIKRLK
Second: MERALMVNRLQKLTRMLRVHPDPKWKQEQQELIKRLK
The “folding stability dG” value of the first is lower: 1.53 kcal/mol for the first, 1.68 kcal/mol for the second.

Compared with PERALMVNRLQKLTRMLRVHPDPKWKQEQQELIKRLK, YERALMVNRLQKLTRMLRVHPDPKWKQEQQELIKRLK is higher in “folding stability dG” value: 1.31 kcal/mol for the first, 1.59 kcal/mol for the second.

Going from SERALMVNRLQKLTRMLRVHPDPKWKQEQQELIKRLK to CERALMVNRLQKLTRMLRVHPDPKWKQEQQELIKRLK, the “folding stability dG” value rises from 1.5 kcal/mol to 2.12 kcal/mol.

Compared with RERALMVNRLQKLTRMLRVHPDPKWKQEQQELIKRLK, KERALMVNRLQKLTRMLRVHPDPKWKQEQQELIKRLK is lower in “folding stability dG” value: 1.63 kcal/mol for the first, 1.42 kcal/mol for the second.

Going from EERALMVNRLQKLTRMLRVHPDPKWKQEQQELIKRLK to NERALMVNRLQKLTRMLRVHPDPKWKQEQQELIKRLK, the “folding stability dG” value rises from 1.26 kcal/mol to 1.45 kcal/mol.

Compared with LERALMVNRLQKLTRMLRVHPDPKWKQEQQELIKRLK, WERALMVNRLQKLTRMLRVHPDPKWKQEQQELIKRLK is higher in “folding stability dG” value: 1.36 kcal/mol for the first, 1.75 kcal/mol for the second.

Going from AERALMVNRLQKLTRMLRVHPDPKWKQEQQELIKRLK to QERALMVNRLQKLTRMLRVHPDPKWKQEQQELIKRLK, the “folding stability dG” value falls from 1.55 kcal/mol to 1.38 kcal/mol.

With TERALMVNRLQKLTRMLRVHPDPKWKQEQQELIKRLK the “folding stability dG” value was 1.45 kcal/mol.

Variants of: B2
Experiment: as above
Settings: PBS, room temperature

First: ELREAFRLYDKEGNGYISTDVMREILAELDETLSSEDLDAMIDEIDADGSGTVDFEEFMGVMS
Second: ELREAFRLYDKEGNGYISTDVMREILAELDETLSSEDLDAMIDEIDADGSGTVDFEEFMGVMV
The “folding stability dG” value of the first is higher: 1.88 kcal/mol for the first, 1.82 kcal/mol for the second.

Going from ELREAFRLYDKEGNGYISTDVMREILAELDETLSSEDLDAMIDEIDADGSGTVDFEEFMGVMN to ELREAFRLYDKEGNGYISTDVMREILAELDETLSSEDLDAMIDEIDADGSGTVDFEEFMGVMW, the “folding stability dG” value falls from 1.82 kcal/mol to 1.33 kcal/mol.

First: ELREAFRLYDKEGNGYISTDVMREILAELDETLSSEDLDAMIDEIDADGSGTVDFEEFMGVMQ
Second: ELREAFRLYDKEGNGYISTDVMREILAELDETLSSEDLDAMIDEIDADGSGTVDFEEFMGVMM
The “folding stability dG” value of the first is lower: 1.83 kcal/mol for the first, 2.17 kcal/mol for the second.

Compared with ELREAFRLYDKEGNGYISTDVMREILAELDETLSSEDLDAMIDEIDADGSGTVDFEEFMGVMI, ELREAFRLYDKEGNGYISTDVMREILAELDETLSSEDLDAMIDEIDADGSGTVDFEEFMGVMK is lower in “folding stability dG” value: 2.07 kcal/mol for the first, 1.97 kcal/mol for the second.

Compared with ELREAFRLYDKEGNGYISTDVMREILAELDETLSSEDLDAMIDEIDADGSGTVDFEEFMGVMP, ELREAFRLYDKEGNGYISTDVMREILAELDETLSSEDLDAMIDEIDADGSGTVDFEEFMGVMR is higher in “folding stability dG” value: 1 kcal/mol for the first, 1.94 kcal/mol for the second.

Going from ELREAFRLYDKEGNGYISTDVMREILAELDETLSSEDLDAMIDEIDADGSGTVDFEEFMGVMY to ELREAFRLYDKEGNGYISTDVMREILAELDETLSSEDLDAMIDEIDADGSGTVDFEEFMGVML, the “folding stability dG” value rises from 1.58 kcal/mol to 2.25 kcal/mol.

Going from ELREAFRLYDKEGNGYISTDVMREILAELDETLSSEDLDAMIDEIDADGSGTVDFEEFMGVMG to ELREAFRLYDKEGNGYISTDVMREILAELDETLSSEDLDAMIDEIDADGSGTVDFEEFMGVMH, the “folding stability dG” value falls from 1.85 kcal/mol to 1.76 kcal/mol.
